In patent US10562947B2, “Compositions and methods for preventing or treating diseases, conditions or processes characterized by aberrant fibroblast proliferation and extracellular matrix deposition” (MOERAE MATRIX, INC., priority 2011, dated 2020):

Assays:
Test in all cases: Kinase Profiling Assay
Format in all cases: biochemical
Details in all cases: 100 μM peptide
DRAK1(h) = target: T1, DRAK1(h) (Homo sapiens, UniProt Q9UEE5)
T1 sequence (Q9UEE5 1-414): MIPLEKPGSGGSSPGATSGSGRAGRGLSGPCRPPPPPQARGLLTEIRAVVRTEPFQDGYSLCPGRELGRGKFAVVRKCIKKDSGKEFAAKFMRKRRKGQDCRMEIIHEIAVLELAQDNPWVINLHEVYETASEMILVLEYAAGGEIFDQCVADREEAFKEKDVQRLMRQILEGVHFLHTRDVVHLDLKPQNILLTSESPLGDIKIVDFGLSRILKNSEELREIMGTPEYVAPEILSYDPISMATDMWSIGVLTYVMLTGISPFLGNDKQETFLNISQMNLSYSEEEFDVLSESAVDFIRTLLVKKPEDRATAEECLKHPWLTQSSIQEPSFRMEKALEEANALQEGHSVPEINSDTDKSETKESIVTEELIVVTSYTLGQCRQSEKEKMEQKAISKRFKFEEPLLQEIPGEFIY
Method in brief: (§1)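 First, MK2 inhibitor peptides were applied to a panel of 266 human kinases; then each kinase's activity was measured in duplicate to assess off-target inhibition.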

EphB4(h) = target: T2, EphB4(h) (Homo sapiens, UniProt P54760)
T2 sequence (P54760 16-987): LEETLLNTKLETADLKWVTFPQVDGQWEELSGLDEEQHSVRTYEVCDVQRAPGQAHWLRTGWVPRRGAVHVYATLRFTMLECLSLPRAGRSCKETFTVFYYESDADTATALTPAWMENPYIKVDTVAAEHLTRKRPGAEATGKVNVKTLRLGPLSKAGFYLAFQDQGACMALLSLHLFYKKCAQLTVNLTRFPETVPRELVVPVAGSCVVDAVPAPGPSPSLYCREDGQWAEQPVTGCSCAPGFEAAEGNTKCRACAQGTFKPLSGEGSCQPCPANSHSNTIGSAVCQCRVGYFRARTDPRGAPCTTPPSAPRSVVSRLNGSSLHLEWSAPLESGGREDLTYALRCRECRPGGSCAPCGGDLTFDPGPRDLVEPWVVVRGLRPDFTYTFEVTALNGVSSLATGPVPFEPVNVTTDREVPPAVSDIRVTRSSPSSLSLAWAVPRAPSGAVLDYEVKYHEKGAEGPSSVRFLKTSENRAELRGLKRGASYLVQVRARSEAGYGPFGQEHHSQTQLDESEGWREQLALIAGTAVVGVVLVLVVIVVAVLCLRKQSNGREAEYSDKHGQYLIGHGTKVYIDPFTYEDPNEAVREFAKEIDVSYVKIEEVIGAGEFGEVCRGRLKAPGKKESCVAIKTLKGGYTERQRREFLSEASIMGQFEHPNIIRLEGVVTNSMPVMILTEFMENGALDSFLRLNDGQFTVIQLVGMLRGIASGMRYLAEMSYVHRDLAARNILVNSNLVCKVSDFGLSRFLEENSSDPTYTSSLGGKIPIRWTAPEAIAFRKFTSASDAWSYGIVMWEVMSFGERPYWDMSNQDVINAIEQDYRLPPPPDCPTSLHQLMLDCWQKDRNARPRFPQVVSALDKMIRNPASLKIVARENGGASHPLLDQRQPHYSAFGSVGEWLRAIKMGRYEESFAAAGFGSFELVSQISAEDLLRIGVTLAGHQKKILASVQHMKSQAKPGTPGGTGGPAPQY
Method in brief: as §1

HIPK1(h) = target: T3, HIPK1(h) (Homo sapiens, UniProt Q86Z02)
T3 construct: purchased Millipore
Method in brief: as §1

IRR(h) = target: T4, IRR(h) (Homo sapiens, UniProt P14616)
T4 construct: purchased Millipore
Method in brief: as §1

PRAK(h) = target: T5, PRAK(h) (Homo sapiens, UniProt Q8IW41)
T5 construct: purchased Millipore (IC50 Profiler Express service)
T5 sequence (Q8IW41 1-473): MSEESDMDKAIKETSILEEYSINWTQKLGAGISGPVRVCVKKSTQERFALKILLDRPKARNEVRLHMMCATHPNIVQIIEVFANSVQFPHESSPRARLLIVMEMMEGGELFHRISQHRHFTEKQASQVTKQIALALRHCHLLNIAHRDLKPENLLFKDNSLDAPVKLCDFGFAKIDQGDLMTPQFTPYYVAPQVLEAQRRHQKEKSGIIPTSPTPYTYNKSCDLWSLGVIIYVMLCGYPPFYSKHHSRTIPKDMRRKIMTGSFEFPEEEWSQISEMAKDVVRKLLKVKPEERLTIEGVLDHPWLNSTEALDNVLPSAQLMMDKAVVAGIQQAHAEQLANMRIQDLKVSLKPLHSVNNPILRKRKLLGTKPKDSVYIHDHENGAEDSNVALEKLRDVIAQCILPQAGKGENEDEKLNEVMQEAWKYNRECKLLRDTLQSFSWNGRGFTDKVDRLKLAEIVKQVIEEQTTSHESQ
Method in brief: as §1

SAPK2a(h) = SAPK2a(h) (Homo sapiens, UniProt Q16539)
Method in brief: as §1

Sequence of SAPK2a(h) (Q16539 whole entry): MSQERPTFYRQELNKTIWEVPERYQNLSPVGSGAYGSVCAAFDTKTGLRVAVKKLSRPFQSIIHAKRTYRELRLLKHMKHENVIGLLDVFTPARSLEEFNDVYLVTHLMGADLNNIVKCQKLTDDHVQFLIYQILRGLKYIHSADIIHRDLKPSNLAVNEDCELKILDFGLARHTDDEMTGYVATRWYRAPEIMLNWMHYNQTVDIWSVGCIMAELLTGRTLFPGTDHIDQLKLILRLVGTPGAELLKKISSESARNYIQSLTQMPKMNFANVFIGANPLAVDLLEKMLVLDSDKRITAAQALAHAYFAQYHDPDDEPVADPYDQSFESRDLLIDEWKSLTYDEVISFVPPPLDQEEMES
T4 sequence (P14616 27-1297): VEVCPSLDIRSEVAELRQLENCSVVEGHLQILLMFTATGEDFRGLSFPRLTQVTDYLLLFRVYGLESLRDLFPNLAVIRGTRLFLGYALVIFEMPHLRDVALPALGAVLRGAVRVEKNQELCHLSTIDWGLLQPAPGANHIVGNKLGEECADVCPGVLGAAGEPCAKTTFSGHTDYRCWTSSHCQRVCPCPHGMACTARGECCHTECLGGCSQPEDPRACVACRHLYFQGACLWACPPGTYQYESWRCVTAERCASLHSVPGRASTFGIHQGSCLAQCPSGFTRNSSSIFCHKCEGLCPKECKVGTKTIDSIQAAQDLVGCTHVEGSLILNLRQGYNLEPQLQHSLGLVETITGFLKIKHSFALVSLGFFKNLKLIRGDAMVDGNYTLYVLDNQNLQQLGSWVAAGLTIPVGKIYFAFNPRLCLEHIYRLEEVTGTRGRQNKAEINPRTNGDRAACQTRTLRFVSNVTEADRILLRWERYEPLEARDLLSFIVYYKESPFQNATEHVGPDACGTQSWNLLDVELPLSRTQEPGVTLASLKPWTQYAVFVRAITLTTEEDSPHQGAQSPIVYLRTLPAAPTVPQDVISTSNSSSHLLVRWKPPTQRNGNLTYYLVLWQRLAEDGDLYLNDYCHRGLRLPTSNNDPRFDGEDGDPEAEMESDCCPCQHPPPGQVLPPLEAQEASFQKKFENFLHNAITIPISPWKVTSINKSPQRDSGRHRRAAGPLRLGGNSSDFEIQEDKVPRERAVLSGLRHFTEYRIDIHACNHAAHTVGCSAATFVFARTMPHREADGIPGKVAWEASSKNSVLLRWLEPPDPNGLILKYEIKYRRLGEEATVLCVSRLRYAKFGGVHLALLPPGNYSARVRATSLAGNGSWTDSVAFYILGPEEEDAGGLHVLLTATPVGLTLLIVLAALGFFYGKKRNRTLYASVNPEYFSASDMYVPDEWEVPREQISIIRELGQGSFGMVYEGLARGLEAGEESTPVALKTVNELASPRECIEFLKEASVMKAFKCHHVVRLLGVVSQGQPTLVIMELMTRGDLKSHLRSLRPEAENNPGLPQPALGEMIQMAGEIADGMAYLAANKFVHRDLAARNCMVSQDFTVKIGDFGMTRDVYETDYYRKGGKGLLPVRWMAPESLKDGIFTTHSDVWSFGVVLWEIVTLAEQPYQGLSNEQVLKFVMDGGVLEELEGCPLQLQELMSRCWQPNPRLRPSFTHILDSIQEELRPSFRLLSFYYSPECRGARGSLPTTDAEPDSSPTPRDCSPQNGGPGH
T3 sequence (Q86Z02 whole entry): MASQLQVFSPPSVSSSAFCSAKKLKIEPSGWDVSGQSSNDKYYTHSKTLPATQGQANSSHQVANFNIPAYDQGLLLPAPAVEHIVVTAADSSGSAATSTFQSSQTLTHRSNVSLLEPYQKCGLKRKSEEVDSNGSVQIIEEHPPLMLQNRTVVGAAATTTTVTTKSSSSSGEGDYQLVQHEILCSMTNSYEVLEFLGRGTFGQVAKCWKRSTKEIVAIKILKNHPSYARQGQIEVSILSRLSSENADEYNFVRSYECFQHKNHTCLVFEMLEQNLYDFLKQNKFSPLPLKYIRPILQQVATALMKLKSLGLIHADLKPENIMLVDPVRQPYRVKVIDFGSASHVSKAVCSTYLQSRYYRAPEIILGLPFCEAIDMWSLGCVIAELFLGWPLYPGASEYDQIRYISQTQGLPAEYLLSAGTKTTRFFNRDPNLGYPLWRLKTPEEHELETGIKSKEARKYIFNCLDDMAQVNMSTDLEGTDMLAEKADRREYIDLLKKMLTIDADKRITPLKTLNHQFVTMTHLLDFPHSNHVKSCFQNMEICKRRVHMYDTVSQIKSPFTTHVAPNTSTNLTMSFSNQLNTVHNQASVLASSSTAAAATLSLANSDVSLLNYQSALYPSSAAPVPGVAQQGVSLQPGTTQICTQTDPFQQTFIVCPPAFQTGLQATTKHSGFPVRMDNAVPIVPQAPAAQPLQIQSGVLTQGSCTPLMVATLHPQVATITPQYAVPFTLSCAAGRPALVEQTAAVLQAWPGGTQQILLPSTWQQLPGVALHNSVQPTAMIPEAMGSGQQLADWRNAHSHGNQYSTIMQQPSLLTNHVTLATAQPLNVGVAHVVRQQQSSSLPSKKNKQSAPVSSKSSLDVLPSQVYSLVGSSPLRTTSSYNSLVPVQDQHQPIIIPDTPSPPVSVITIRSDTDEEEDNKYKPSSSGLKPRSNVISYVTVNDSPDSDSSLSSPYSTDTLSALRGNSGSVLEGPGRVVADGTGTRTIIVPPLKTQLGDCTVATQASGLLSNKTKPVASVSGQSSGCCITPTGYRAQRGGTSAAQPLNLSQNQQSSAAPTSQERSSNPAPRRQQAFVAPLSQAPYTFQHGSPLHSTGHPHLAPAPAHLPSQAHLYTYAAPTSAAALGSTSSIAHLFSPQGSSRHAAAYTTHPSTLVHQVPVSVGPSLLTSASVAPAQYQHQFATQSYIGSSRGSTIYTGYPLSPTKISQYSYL

Sequence	DRAK1(h) % activity (DRAK1(h))	EphB4(h) % activity (EphB4(h))	HIPK1(h) % activity (HIPK1(h))	IRR(h) % activity (IRR(h))	PRAK(h) % activity (PRAK(h))	SAPK2a(h) % activity (SAPK2a(h))
HRRIKAWLKKIKALARQLGVAA (Mammalian) [MMI-0500]	8%	38%	47%	10%	95%	52%
FAKLAARLYRKALARQLGVAA [MMI-0300]	14%	44%	74%	8%	128%	90%
YARAAARQARAKALNRQLGVA (Mammalian) [MMI-0200]	34%	131%	–	69%	–	–
KAFAKLAARLYRKALARQLGVAA [MMI-0400]	14%	28%	91%	8%	118%	85%
